# From the supplement of paper PMC12042874
# ± gives the uncertainty stated by the source.
# Experiment: amyloid nucleation score (Sup35N fusion, yeast selection) (log enrichment); library NNK2; higher = more nucleation; inactive = no reads after selection
# How it was run: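 In psi-negative yeast, Sup35N fusions carrying peptides of 20 random codons were induced with 100 μM copper sulfate for 24 hours. The cells then grew 7 days at 30°C on medium lacking adenine and uracil, and plasmid inserts from input and output were Illumina-sequenced, excluding sequences with under 100 input reads. Nucleation score is the DiMSum log enrichment of output over input reads, centred on the mode score of non-aggregating sequences.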
row,Substance,amyloid nucleation score
1,RMDGNLQGHDDCVNV,0.773 ± 0.29
2,YLKGNIKATVFTNSPMLV,-0.085 ± 0.79
3,SWWYSKELKSRSAILATMMK,-0.151 ± 0.28
4,IYLSTCTYF,0.155 ± 0.49
5,YNSCFYQKWVMCGHSCYHQV,4.77 ± 0.11
6,IEVFDIWCPAGFVMEALRFV,4.28 ± 0.099
7,NGVRSWSQHLWKRGRWEG,1.69 ± 0.3
8,AGFMHVCYGSGQHRSKVDGC,2.93 ± 0.082
9,QLIIMCVMGEQTICTVCHTG,7.153 ± 0.042
10,ISLSHWGQTIPLRSFLLNRL,0.432 ± 0.53
11,VVLRELRIYIMNVWDPRGTL,-0.998 ± 0.62
12,KQLKWFCITK,-0.862 ± 0.45
13,LAQQRPLRQRTMRHGSRFTA,0.671 ± 0.43
14,FMVQSVFTKLGPSQAFRVHP,-0.14 ± 1
15,TAASISIDRTKSMPLSDRMY,inactive
16,SLDCPGFGRAYV,1.62 ± 0.16
17,LVEAFYNVWRRTSAHCETVC,-0.272 ± 0.55
18,SYRELIYRDWLYRHVTL,1.1 ± 0.11
19,FSVRGRWAHLWMK,0.443 ± 0.42
20,RRYIMQSWLHATSEFPGCDP,0.54 ± 0.53
21,GQTLTRRKVKGRQRELTSGQ,0.967 ± 0.36
22,FCSDGK,0.186 ± 0.3

row,Substance,amyloid nucleation score
1,NFRGTVLLAR,0.468 ± 0.74
2,PCIFFMRFYFRT,-0.078 ± 0.65
3,SKLRYNFR,-0.573 ± 0.32
4,VWILSLAWLLPGYTCPFGPK,4.801 ± 0.042
5,CLCPTNYDSSRIYLVRC,inactive
6,YNNAGGQVDLNLCYGLDVFL,inactive
7,SFTGL,-0.684 ± 0.44
8,AFEFQYFIGGFRTRIMNCVF,inactive
9,PDRSTFRVYSLHWTFCEHRC,3.74 ± 0.1
10,CYWWDWVLY,-0.032 ± 0.45
11,AVYCTL,0.088 ± 0.35
12,SSTFCS,0.405 ± 0.64
13,LTFPA,-0.206 ± 1.1
14,QLFTWILVAPKLPCWF,6.36 ± 0.086
15,HFNSTNPTRLLVDEEFFYFE,-0.317 ± 0.5
16,RSVVVGGHNLRISTQAILIP,0.34 ± 0.64
17,RGGTKRGELCDALNHQFSVL,0.413 ± 0.22
18,FLTGDFSAHMNLLIWIFEMS,5.669 ± 0.05
19,IVPSQH,0.271 ± 0.44
20,TTPGTDSLMAEII,1.01 ± 0.49
21,FVGTLMDPVSLMKLRW,0.787 ± 0.31
22,MMLSYILR,0.223 ± 0.77

row,Substance,amyloid nucleation score
1,SRLLIREYNLVSNDKFIYFV,3.01 ± 0.073
2,CINANRGRFLKEIMDLVLRE,-0.586 ± 0.23
3,HKRFKEGLSG,0.047 ± 0.36
4,LNHPTGCEYRWEARPNLCEK,-0.553 ± 0.63
5,RVPFWFT,-1.2 ± 0.49
6,FIIRYLYYKS,inactive
7,ETHFVTKDLASSLGKLAHPY,8.848 ± 0.069
8,AMLRPQTDHGVSSIHSLIIG,inactive
9,ACAMFSKRSHSITSVVMGYG,0.29 ± 0.48
10,QLQFMRADFFLNKVKLRGET,inactive
11,HNYMLVILHRDSPNLNLGHS,3.94 ± 0.12
12,FVTFWDYWSSRGDPMMSYRV,0.13 ± 0.49
13,WSRIGG,-0.498 ± 0.63
14,SCALF,-0.679 ± 1.1
15,DSGFGSW,-0.807 ± 0.74
16,YSSADGPDSDMCRSVLKLVI,0.287 ± 0.25
17,LVNVIS,0.2 ± 0.35
18,FICSAYFECRRDSYEFFVGC,inactive
19,LAQPCQE,-0.033 ± 0.55
20,NSVCSTLKHLSNLGSIDIQH,-0.363 ± 1.1
21,LDDPCSHYILGSGHDHVLRR,0.697 ± 0.81
